# Test results published in the MegaScale stability set (Tsuboyama et al. 2023).
# B1: EEHEE_rd4_0647 (parent)
# chain: MQVTWGNVTVTFSNPEEAKKYAEKVARKLGGQVELHNGQFRIK
# Variants of: B1
# Test: folding stability dG (cDNA display proteolysis); higher = more stable
# Conditions: PBS, room temperature
row,Variant,folding stability dG [kcal/mol]
1,MQVTWGNVTVTFSNPEEAKKYAEKVARKLGGQVELHRGQFRIK,1.92
2,MQVTWGNVTVTFSNPEEAKKYAEKVARKLGGQVELHYGQFRIK,1.7
3,MQVTWGNVTVTFSNPEEAKKYAEKVARKLGGQVELHDGQFRIK,2.69
4,MQVTWGNVTVTFSNPEEAKKYAEKVARKLGGQVELHQGQFRIK,2.27
5,MQVTWGNVTVTFSNPEEAKKYAEKVARKLGGQVELHHGQFRIK,2.14
6,MQVTWGNVTVTFSNPEEAKKYAEKVARKLGGQVELHVGQFRIK,1.39
7,MQVTWGNVTVTFSNPEEAKKYAEKVARKLGGQVELHSGQFRIK,1.93
8,MQVTWGNVTVTFSNPEEAKKYAEKVARKLGGQVELHGGQFRIK,2.32
9,MQVTWGNVTVTFSNPEEAKKYAEKVARKLGGQVELHIGQFRIK,1.41
10,MQVTWGNVTVTFSNPEEAKKYAEKVARKLGGQVELHEGQFRIK,2.56
11,MQVTWGNVTVTFSNPEEAKKYAEKVARKLGGQVELHWGQFRIK,1.32
12,MQVTWGNVTVTFSNPEEAKKYAEKVARKLGGQVELHMGQFRIK,2.11
13,MQVTWGNVTVTFSNPEEAKKYAEKVARKLGGQVELHTGQFRIK,1.36
14,MQVTWGNVTVTFSNPEEAKKYAEKVARKLGGQVELHPGQFRIK,1.58
15,MQVTWGNVTVTFSNPEEAKKYAEKVARKLGGQVELHFGQFRIK,1.9
16,MQVTWGNVTVTFSNPEEAKKYAEKVARKLGGQVELHAGQFRIK,2.05
17,MQVTWGNVTVTFSNPEEAKKYAEKVARKLGGQVELHKGQFRIK,2.26
18,MQVTWGNVTVTFSNPEEAKKYAEKVARKLGGQVELHLGQFRIK,2.14
19,MQVTWGNVTVTFSNPEEAKKYAEKVARKLGGQVELHNFQFRIK,1.73
20,MQVTWGNVTVTFSNPEEAKKYAEKVARKLGGQVELHNPQFRIK,0.661

row,Variant,folding stability dG [kcal/mol]
1,MQVTWGNVTVTFSNPEEAKKYAEKVARKLGGQVELHNTQFRIK,1.36
2,MQVTWGNVTVTFSNPEEAKKYAEKVARKLGGQVELHNEQFRIK,1.44
3,MQVTWGNVTVTFSNPEEAKKYAEKVARKLGGQVELHNIQFRIK,0.887
4,MQVTWGNVTVTFSNPEEAKKYAEKVARKLGGQVELHNSQFRIK,1.6
5,MQVTWGNVTVTFSNPEEAKKYAEKVARKLGGQVELHNRQFRIK,1.89
6,MQVTWGNVTVTFSNPEEAKKYAEKVARKLGGQVELHNMQFRIK,1.65
7,MQVTWGNVTVTFSNPEEAKKYAEKVARKLGGQVELHNKQFRIK,1.81
8,MQVTWGNVTVTFSNPEEAKKYAEKVARKLGGQVELHNAQFRIK,1.32
9,MQVTWGNVTVTFSNPEEAKKYAEKVARKLGGQVELHNVQFRIK,0.809
10,MQVTWGNVTVTFSNPEEAKKYAEKVARKLGGQVELHNLQFRIK,1.46
11,MQVTWGNVTVTFSNPEEAKKYAEKVARKLGGQVELHNNQFRIK,2.46
12,MQVTWGNVTVTFSNPEEAKKYAEKVARKLGGQVELHNHQFRIK,3.93
13,MQVTWGNVTVTFSNPEEAKKYAEKVARKLGGQVELHNDQFRIK,1.91
14,MQVTWGNVTVTFSNPEEAKKYAEKVARKLGGQVELHNYQFRIK,1.64
15,MQVTWGNVTVTFSNPEEAKKYAEKVARKLGGQVELHNCQFRIK,2.88
16,MQVTWGNVTVTFSNPEEAKKYAEKVARKLGGQVELHNWQFRIK,1.24
17,MQVTWGNVTVTFSNPEEAKKYAEKVARKLGGQVELHNQQFRIK,1.67
18,MQVTWGNVTVTFSNPEEAKKYAEKVARKLGGQVELHNGGFRIK,3.07
19,MQVTWGNVTVTFSNPEEAKKYAEKVARKLGGQVELHNGFFRIK,2.23
20,MQVTWGNVTVTFSNPEEAKKYAEKVARKLGGQVELHNGLFRIK,2.1

row,Variant,folding stability dG [kcal/mol]
1,MQVTWGNVTVTFSNPEEAKKYAEKVARKLGGQVELHNGIFRIK,3.09
2,MQVTWGNVTVTFSNPEEAKKYAEKVARKLGGQVELHNGHFRIK,2.93
3,MQVTWGNVTVTFSNPEEAKKYAEKVARKLGGQVELHNGEFRIK,2.72
4,MQVTWGNVTVTFSNPEEAKKYAEKVARKLGGQVELHNGCFRIK,2.68
5,MQVTWGNVTVTFSNPEEAKKYAEKVARKLGGQVELHNGDFRIK,1.96
6,MQVTWGNVTVTFSNPEEAKKYAEKVARKLGGQVELHNGKFRIK,2.43
7,MQVTWGNVTVTFSNPEEAKKYAEKVARKLGGQVELHNGAFRIK,2.73
8,MQVTWGNVTVTFSNPEEAKKYAEKVARKLGGQVELYNGQFRIK,2.79
9,MQVTWGNVTVTFSNPEEAKKYAEKVARKLGGQVELRNGQFRIK,2.58
10,MQVTWGNVTVTFSNPEEAKKYAEKVARKLGGQVELTNGQFRIK,2.6
11,MQVTWGNVTVTFSNPEEAKKYAEKVARKLGGQVELVNGQFRIK,3.35
12,MQVTWGNVTVTFSNPEEAKKYAEKVARKLGGQVELPNGQFRIK,0.326
13,MQVTWGNVTVTFSNPEEAKKYAEKVARKLGGQVELWNGQFRIK,2.85
14,MQVTWGNVTVTFSNPEEAKKYAEKVARKLGGQVELKNGQFRIK,2.66
15,MQVTWGNVTVTFSNPEEAKKYAEKVARKLGGQVELSNGQFRIK,2.6
16,MQVTWGNVTVTFSNPEEAKKYAEKVARKLGGQVELLNGQFRIK,2.89
17,MQVTWGNVTVTFSNPEEAKKYAEKVARKLGGQVELNNGQFRIK,2.33
18,MQVTWGNVTVTFSNPEEAKKYAEKVARKLGGQVELQNGQFRIK,2.54
19,MQVTWGNVTVTFSNPEEAKKYAEKVARKLGGQVELMNGQFRIK,2.68
